B1: ZNF207 (parent)
chain: CHICHKKLYTGPGLAIHCMQVHKE
B2: CDC25A (parent)
chain: TVAGKHQDLKYISPEIMASVLNGK

Variants of: B1
Assay: protein stability index of a GFP-peptide fusion (GPS, HEK-293T) (PSI 1-6); higher = more stable
Settings: c terminus: a fixed tail appended
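Also: lentivirally expressed fusions sorted by FACS into six bins by GFP to DsRed ratio, PSI derived from sequencing read proportions per bin multiplied by bin number.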

Compared with CHIWHKKLYTGPGLAIHCMQVHKE [C4W], CHIEHKKLYTGPGLAIHCMQVHKE [C4E] is lower in protein stability index: 1.88 for the first, 1.07 for the second.

First: CHISHKKLYTGPGLAIHCMQVHKE [C4S]
Second: CHIYHKKLYTGPGLAIHCMQVHKE [C4Y]
The protein stability index of the first is lower: 1.38 for the first, 2.04 for the second.

First: CHIFHKKLYTGPGLAIHCMQVHKE [C4F]
Second: CHIIHKKLYTGPGLAIHCMQVHKE [C4I]
The protein stability index of the first is lower: 1.93 for the first, 3.16 for the second.

First: CHITHKKLYTGPGLAIHCMQVHKE [C4T]
Second: CHIKHKKLYTGPGLAIHCMQVHKE [C4K]
The protein stability index of the first is higher: 1.5 for the first, 1.15 for the second.

Compared with CHIQHKKLYTGPGLAIHCMQVHKE [C4Q], CHIMHKKLYTGPGLAIHCMQVHKE [C4M] is higher in protein stability index: 2.01 for the first, 2.12 for the second.

Compared with CHIRHKKLYTGPGLAIHCMQVHKE [C4R], CHINHKKLYTGPGLAIHCMQVHKE [C4N] is lower in protein stability index: 1.94 for the first, 1.9 for the second.

First: CHIDHKKLYTGPGLAIHCMQVHKE [C4D]
Second: CHILHKKLYTGPGLAIHCMQVHKE [C4L]
The protein stability index of the first is higher: 1.6 for the first, 1.39 for the second.

Compared with CHIPHKKLYTGPGLAIHCMQVHKE [C4P], CHIGHKKLYTGPGLAIHCMQVHKE [C4G] is lower in protein stability index: 2.5 for the first, 1.7 for the second.

First: CHIHHKKLYTGPGLAIHCMQVHKE [C4H]
Second: CHIAHKKLYTGPGLAIHCMQVHKE [C4A]
The protein stability index of the first is higher: 1.6 for the first, 1.36 for the second.

Compared with DHICHKKLYTGPGLAIHCMQVHKE [C1D], SHICHKKLYTGPGLAIHCMQVHKE [C1S] is lower in protein stability index: 2.78 for the first, 2.58 for the second.

Going from KHICHKKLYTGPGLAIHCMQVHKE [C1K] to GHICHKKLYTGPGLAIHCMQVHKE [C1G], the protein stability index falls from 2.16 to 2.07.

Going from EHICHKKLYTGPGLAIHCMQVHKE [C1E] to RHICHKKLYTGPGLAIHCMQVHKE [C1R], the protein stability index rises from 2.76 to 3.

Going from NHICHKKLYTGPGLAIHCMQVHKE [C1N] to QHICHKKLYTGPGLAIHCMQVHKE [C1Q], the protein stability index falls from 2.24 to 1.8.

Compared with HHICHKKLYTGPGLAIHCMQVHKE [C1H], PHICHKKLYTGPGLAIHCMQVHKE [C1P] is higher in protein stability index: 1.83 for the first, 2.69 for the second.

First: YHICHKKLYTGPGLAIHCMQVHKE [C1Y]
Second: THICHKKLYTGPGLAIHCMQVHKE [C1T]
The protein stability index of the first is higher: 2.84 for the first, 1.94 for the second.

Going from IHICHKKLYTGPGLAIHCMQVHKE [C1I] to AHICHKKLYTGPGLAIHCMQVHKE [C1A], the protein stability index rises from 1.52 to 2.02.

Going from LHICHKKLYTGPGLAIHCMQVHKE [C1L] to MHICHKKLYTGPGLAIHCMQVHKE [C1M], the protein stability index rises from 1.94 to 2.03.

Compared with CYICHKKLYTGPGLAIHCMQVHKE [H2Y], CMICHKKLYTGPGLAIHCMQVHKE [H2M] is lower in protein stability index: 2.74 for the first, 2.49 for the second.

Going from CKICHKKLYTGPGLAIHCMQVHKE [H2K] to CQICHKKLYTGPGLAIHCMQVHKE [H2Q], the protein stability index rises from 2.91 to 3.4.

First: CIICHKKLYTGPGLAIHCMQVHKE [H2I]
Second: CDICHKKLYTGPGLAIHCMQVHKE [H2D]
The protein stability index of the first is lower: 2.46 for the first, 4.28 for the second.

First: CRICHKKLYTGPGLAIHCMQVHKE [H2R]
Second: CVICHKKLYTGPGLAIHCMQVHKE [H2V]
The protein stability index of the first is higher: 2.59 for the first, 2.44 for the second.

First: CLICHKKLYTGPGLAIHCMQVHKE [H2L]
Second: CCICHKKLYTGPGLAIHCMQVHKE [H2C]
The protein stability index of the first is higher: 2.78 for the first, 2.45 for the second.

First: CSICHKKLYTGPGLAIHCMQVHKE [H2S]
Second: CGICHKKLYTGPGLAIHCMQVHKE [H2G]
The protein stability index of the first is lower: 2.73 for the first, 3.31 for the second.

Going from CAICHKKLYTGPGLAIHCMQVHKE [H2A] to CEICHKKLYTGPGLAIHCMQVHKE [H2E], the protein stability index rises from 2.71 to 3.07.

First: CWICHKKLYTGPGLAIHCMQVHKE [H2W]
Second: CTICHKKLYTGPGLAIHCMQVHKE [H2T]
The protein stability index of the first is lower: 2.61 for the first, 2.87 for the second.

First: CFICHKKLYTGPGLAIHCMQVHKE [H2F]
Second: CNICHKKLYTGPGLAIHCMQVHKE [H2N]
The protein stability index of the first is lower: 2.76 for the first, 3.65 for the second.

Going from CPICHKKLYTGPGLAIHCMQVHKE [H2P] to CHRCHKKLYTGPGLAIHCMQVHKE [I3R], the protein stability index falls from 2.9 to 2.52.

Compared with CHMCHKKLYTGPGLAIHCMQVHKE [I3M], CHLCHKKLYTGPGLAIHCMQVHKE [I3L] is higher in protein stability index: 2.73 for the first, 3.09 for the second.

Going from CHECHKKLYTGPGLAIHCMQVHKE [I3E] to CHKCHKKLYTGPGLAIHCMQVHKE [I3K], the protein stability index rises from 2.37 to 3.1.

Compared with CHPCHKKLYTGPGLAIHCMQVHKE [I3P], CHYCHKKLYTGPGLAIHCMQVHKE [I3Y] is higher in protein stability index: 1.99 for the first, 3.43 for the second.

Going from CHACHKKLYTGPGLAIHCMQVHKE [I3A] to CHDCHKKLYTGPGLAIHCMQVHKE [I3D], the protein stability index rises from 2.17 to 2.24.

Compared with CHVCHKKLYTGPGLAIHCMQVHKE [I3V], CHCCHKKLYTGPGLAIHCMQVHKE [I3C] is higher in protein stability index: 2.51 for the first, 2.54 for the second.

Compared with CHFCHKKLYTGPGLAIHCMQVHKE [I3F], CHHCHKKLYTGPGLAIHCMQVHKE [I3H] is higher in protein stability index: 2.34 for the first, 3.67 for the second.

Compared with CHWCHKKLYTGPGLAIHCMQVHKE [I3W], CHQCHKKLYTGPGLAIHCMQVHKE [I3Q] is lower in protein stability index: 2.73 for the first, 2.44 for the second.

Compared with CHGCHKKLYTGPGLAIHCMQVHKE [I3G], CHNCHKKLYTGPGLAIHCMQVHKE [I3N] is lower in protein stability index: 2.48 for the first, 2.19 for the second.

First: CHSCHKKLYTGPGLAIHCMQVHKE [I3S]
Second: CHTCHKKLYTGPGLAIHCMQVHKE [I3T]
The protein stability index of the first is lower: 2.58 for the first, 3.03 for the second.

CHICAKKLYTGPGLAIHCMQVHKE [H5A] showed a protein stability index of 3.83.

Variants of: B2
Assay: as above
Settings: c terminus: a fixed tail appended

Compared with TVAGKHQDLKYISPEIMYSVLNGK [A18Y], TVAGKHQDLKYISPEIMASVMNGK [L21M] is higher in protein stability index: 2.65 for the first, 3.4 for the second.

First: TVAGKHQDLKYISPEIMASVPNGK [L21P]
Second: TVAGKHQDLKYISPEIMASVFNGK [L21F]
The protein stability index of the first is higher: 4.08 for the first, 3.16 for the second.

Going from TVAGKHQDLKYISPEIMASVQNGK [L21Q] to TVAGKHQDLKYISPEIMASVANGK [L21A], the protein stability index falls from 4 to 3.83.

First: TVAGKHQDLKYISPEIMASVGNGK [L21G]
Second: TVAGKHQDLKYISPEIMASVYNGK [L21Y]
The protein stability index of the first is higher: 3.83 for the first, 3.18 for the second.

Compared with TVAGKHQDLKYISPEIMASVSNGK [L21S], TVAGKHQDLKYISPEIMASVKNGK [L21K] is higher in protein stability index: 3.8 for the first, 4.25 for the second.

Compared with TVAGKHQDLKYISPEIMASVWNGK [L21W], TVAGKHQDLKYISPEIMASVHNGK [L21H] is higher in protein stability index: 3.17 for the first, 4.05 for the second.

First: TVAGKHQDLKYISPEIMASVENGK [L21E]
Second: TVAGKHQDLKYISPEIMASVDNGK [L21D]
The protein stability index of the first is lower: 4.02 for the first, 4.05 for the second.

Compared with TVAGKHQDLKYISPEIMASVTNGK [L21T], TVAGKHQDLKYISPEIMASVCNGK [L21C] is lower in protein stability index: 3.84 for the first, 3.54 for the second.

Compared with TVAGKHQDLKYISPEIMASVNNGK [L21N], TVAGKHQDLKYISPEIMASVINGK [L21I] is lower in protein stability index: 3.65 for the first, 3.35 for the second.

Compared with TVAGKHQDLKYISPEIMASVRNGK [L21R], TVAGKHQDLKYISPEIMASVVNGK [L21V] is lower in protein stability index: 3.7 for the first, 3.54 for the second.

Work on TVAGKHQDLKYISPEIMASVLRGK [N22R] yielded a protein stability index of 2.71.
